Test: soluble on expression in E. coli; label from the status in PepcDB or PDB records

| Sequence | soluble on expression in E. coli |
| --- | --- |
| MSLLLENCKLETGFSTVNQRIVATETASYDIRIENEVCTAVAPQLRPLENETVIDVNQQLVLPALREMHIHIDKTYFGGPWKACRPLTKGILTRIEEETWLLPEQLPTSLERACQVIEQYIQQGHYHIRSHCNVDPSIGTKHIEITKEAFSRYEQYITHEIVAFPQHGLLRSQVEPLMREALRMGATHVGGVDPALVDRHVDHSIAKIFELATTFNKKIDVHLHARDTLGLYEFNKFVDYTEQAKMFGKVTLSHALALGSLEEAAIRDIAQKFIETGIDLTSTVPIGMPTMPIPTLVEQGVKISVAHDSLTDHWSPFGSGNTIEKLNTAAQRFKISDEYRLNRLWGLASNFVTPLDPNGQQVWPNVGDSADFLLFNAESTAHVIARQQPIQQLILKGQLVEAVQKGEKEEGHHHHHH | soluble |
| MSLLPGPLLIPSDSSTELTQTVLEGESISCFQVGGEKRLCLPQVLNSVLREFTLQQINTVCDELYIYCSRCTSDQLHILKVLGILPFNAPSCGLITLTDAQRLCNALLRPRTFPQNGSVLPAKSSLAQLKETGSAFEVEHECLGKCQGLFAPQFYVQPDAPCIQCLECCGMFAPQTFVMHSHRSPDKRTCHWGFESAKWHCYLHVNQKYLGTPEEKKLKIILEEMKEKFSMRSGKRNQSKTDAPSGMELQSWYPVIKQEGDHVSQTHSFLHPSYYLYMCDKVVAPNVSLTSAVSQSKELTKTEASKSISRQSEKAHSSGKLQKTVSYPDVSLEEQEKMDLKTSRELCSRLDASISNNSTSKRKSESATCNLVRDINKVGIGLVAAASSPLLVKDVICEDDKGKIMEEVMRTYLKQQEKLNLILQKKQQLQMEVKMLSSSKSMKELTEEQQNLQKELESLQNEHAQRMEEFYVEQKDLEKKLEQIMKQKCTCDSNLEKDKEAEYAGQLAELRQRLDHAEADRQELQDELRQEREARQKLEMMIKELKLQILKSSKTAKEEGHHHHHH | not soluble |
| MSLLRSLRVFLVARTGSYPAGSLLRQSPQPRHTFYAGPRLSASASSKELLMKLRRKTGYSFVNCKKALETCGGDLKQAEIWLHKEAQKEGWSKAAKLQGRKTKEGLIGLLQEGNTTVLVEVNCETDFVSRNLKFQLLVQQVALGTMMHCQTLKDQPSAYSKGFLNSSELSGLPAGPDREGSLKDQLALAIGKLGENMILKRAAWVKVPSGFYVGSYVHGAMQSPSLHKLVLGKYGALVICETSEQKTNLEDVGRRLGQHVVGMAPLSVGSLDDEPGGEAETKMLSQPYLLDPSITLGQYVQPQGVSVVDFVRFECGEGEEAAETE | soluble |
| MSLLSYRHAFHAGNHADMLKHFTLFLVLQYFNRKDKPYWYIDTHGGAGVYNLEGSEAQKVGEYRQGIALLRQAQNLPAELSDFAAHIQKILPSPELYCGSPWLAQSLTRVGDKLRLFELHPTDFVHLQNNMGEAGLGKRGQVLREDGYKGLISLLPPPPRRAAVLIDPPYEEKQDYWRVTETLKSALKRFESGCYLIWYPCLSREESRKLPEELKKLVPDNYLHAELHVHAPKADGFGMHGSGMFVINPPYLLAEQLAANLPALTRLLAQDEGARYLLDSKEGHHHHHH | soluble |
| MSLNGTFEATKSCPAYLSKNRKSNPDNLMVEPNQKYQLKEINKTKPDWLRIQFSDHQPNLRWVSVDCGVIEYTERPKASCDLSPGMADSYVLALSSQPGFCETYGYEIGKPECLKLTKTVYQANHLILHGLWPNQEACGHNYGYCGISPRTNHCDYSPLDLSSDVAQNLKKLMPSYNYGSCLERHEWNKHGSCQDLSTDGYFSLAMRLTTEVNNTEFGQYLTAHRGDTVKLTTLRELIKRSFGENNTGKVTLSCKNGILVDIYVQLPALIPFKESLESLVDKASEGHHHHHH | not soluble |
| MSLNIAMTGATGYIGKHLSNYLTEKGGHRIIPLGRAMFREGMSGLLVQTLTHCDVIINLAGAPINQRWTPEHKQELFNSRITVTHRIIRALNAVKTKPKLMISASAVGYYPSLVESDEYTQTRGDGFLSDLCYAWEKEAKRCPQPTRLVITRFGVVLSPDGGAMQQMLRPLRATKVAAVIGPGTQPFPWIDIRDLCCAMAFFIENEELRGVFNLVAPQAVSQSTFTRAMGKAYHAWTTLIVPQAVFRLFYGEAASFLTAGQRVRPTRLLEAGFHFSVPTIEKLFEGEGHHHHHH | soluble |
| MSLNIFDHYRQRYEAAKDEEFTLQEFLTTCRQDRSAYANAAERLLMAIGEPVMVDTAQDPRLSRLFSNRVIARYPAFEEFYGMEDAIEQIVSYLKHAAQGLEEKKQILYLLGPVGGGKSSLAERLKSLMQLVPIYVLSANGERSPVNDHPFCLFNPQEDAQILEKEYGIPRRYLGTIMSPWAAKRLHEFGGDITKFRVVKVWPSILQQIAIAKTEPGDENNQDISALVGKVDIRKLEHYAQNDPDAYGYSGALCRANQGIMEFVEMFKAPIKVLHPLLTATQEGNYNGTEGISALPFNGIILAHSNKSEWVTFRNNKNNEAFLDRVYIVKVPYCLRISEEIKIYEKLLNHSELTHAPCAPGTLETLSRFSILSRLKEPENSSIYSKMRVYDGESLKDTDPKAKSYQEYRDYAGVDEGMNGLSTRFAFKILSRVFNFDHVEVAANPVHLFYVLEQQIEVYWQEGHHHHHH | not soluble |
| MSLNKKIILLADDDRDDIEMFCEALEMVNENVICECAENGDQAWRMLNDNNEKPQLIFLDINMPIMNGWECLKLIKKDENYQDIPVIMISTSSHKNDMETASKLGALGYFVKPNDFNDLKSMLKIITSNEGTDEGHHHHHH | soluble |
| MSLNLSRIGLDLAKQVFQVHGVDRHEHVVCRRQLKRAQVRDFFRQLPPCLVAMEACGSAHYWARELRELGHTVRLIAPQFVKPYVKGDKHDAHDAEAICEAASRPSMRYVPVKSAEQQAVQSMHRVRSRLVRARTALCNEVRGLLGEFGLIATRRGRAATMALLETVMATEPAPLPAPMGELLRELKDELQTLEARIARLERQIQAHVRGDARIQRLLAVEGIGPISASAVAASAGDARQFRTGRQFAAWLGLVPRQHSTGGQQRLGNISKRGDTYLRTLLIHGARAVVRCCANKTDARSRWLQGLLQRRPANVVAVALANKNARILWALLSRETCYRPGEGHHHHHH | not soluble |
| MSLNNQANKLRNLMSQNGTKKSQNTHFIAITSGKGGVGKSTISANLANVLANNGYKVGLFDADIGLANLDVILNVRIQKNLLHVLRGECSLEDILIEVKPNLWLIPGESGDEILKYNDKNIYERFLNQASILDELDFLIIDTGAGIGGNILNFLEMADEVIVVTVPDPAAITDAYATIKTTSKTKENLLMLFNVVKNENEALKVFENIKKVADANIKNPLNLEFLGHLSASKDVSGSIKKRTLFSDENTASSDEIKALASKLLYRLERKVLDNVSNRSFSSFFRKIIEREGHHHHHH | soluble |
| MSLNPFQKIKSAVNKRQRFFINRTLQRKLTNQGMTVISANCVGAFILHDLHQPFNSPFVNLYLSPQDFLRYLQNIDFYLTQPLTFVQTEKSYPVGKLADLEIHFMHYHSEQEANEKWQLRTSRMKLDNLFIMMTDRDGVTEKDIQLFDQLPFKNKVIFTHKPYPAFKSAYYIKGFEKQNQVGDIFEFSGWNGKKYYDQFDYVKWFNHAEGHHHHHH | soluble |
| MSLNQNPVEEGQKFPLTIRRMGINGEGIGYFKKAVVFVPGAITGEEVVVEAVKVRDRFTEAKLNKIRKKSPNRVTAPCPVYEACGGCQLQHVAYSAQLELKRDIVIQSIEKHTKIDPTKLKIRPTIGMEDPWRYRNKSQFQTRMVGSGQVETGLFGANSHQLVPIEDCIVQQPVTIKVTNFVRDLLEKYGVPIYDEKAGSGIVRTIVVRTGVKTGETQLVFITNSKKLPKKREMLAEIEAALPEVTSIMQNVNQAKSSLIFGDETFLLAGKESIEEKLMELEFDLSARAFFQLNPFQTERLYQEVEKALVLTGSETLVDAYCGVGTIGQAFAGKVKEVRGMDIIPESIEDAKRNAEKNGIENVYYEVGKAEDVLPKWVKEGFRPDAVIVDPPRSGCDQGLIKSLLDVEAKQLVYVSCNPSTLARDLALLAKKYRIRYMQPVDMFPQTAHVETVVLLQLKDKEGHHHHHH | soluble |
| MSLNQQYNAFSVLVVDDELGMQAILKKALGKLFSHVDTAGSIEEAEQLRNSRHYDLILLDINLPGRSGIEWEEAFEDDEKRADVIFMTGYADLEIAIRALQLGASDFILKPFNLEQMLKAVSRCMDRRLNERMQYAMKRDYQRHNTSEIIGGSEKTRQLKQLITQFAPSRASVLVEGESGTGKELVARGIHQASGRTGPFVPINCGAIAPELLESELFGHTSGAFTGAKKSREGLFRVANGGTLFLDEIGEMPLSMQASLLRVLEQRTIRPVGSEREISIDVRIVAATNRNLQEEVNQGNFRSDLYYRLNVLKIEVCPLRERKTDLFELVPFFSNMLTRELGMPAPKWAHEDMEAMSEYDWPGNIRELKNLIERCILLGKPPAHYWRELNGGHSLPNVSEGHHHHHH | soluble |
| MSLNTIDNKEHIIHYEHILKSTHTVNEVNTVSEVDAMKYSLIKLSAMNSYSDCQQAIEDIEADPENYTTETRAAARIGGHCELLKGAKEKIKALEKKADSFIPSDDSEEVNTVSETSQRTYGYGRVSTDEQTTSQQLTAIREAGHKVSDNRFIVDEGVSGGVCAMERPAFRNLVENKLEKGDTLVIAKLDRLGRDNIDVQQVVQMLTDKGIKLFILDLPVADLSSPEGKLMLQMFATFAEFEKNRISERIRDKLKQLKQEGKALGRPTKNVYDDVQELKAQGISQRTIADKLNVSLSTVRRNWVDTKRSLEVVTESGEGHHHHHH | not soluble |
| MSLNVFDKSGQSSGYKLSSTIGKNNTDVNKNDNNSAIYSESAVIVFGYPEYLSNQVITHFSHFGNILEDFEILRSSTGINNNTFRLHANLNALQEGSMSTKLPIFTGEGWVKITYDSPTSALRALKENGTVFTGHLIGCIPYSKSAVEQLALISVDKSDDIGSIDLGQINKSVNEDSRNKGSNGKVYPSLGSVDHIEPINGRQKEANMKSFGTPIINNNQQYLDHSIMAHPRHKLDIQDGKSLFVHNSSHHKTQFLDNIEKKIKEKEANKNESGSWSGRLTNWVFGWDNEGHHHHHH | soluble |
| MSLNVQGNLFRPLTLPNGLSLENRFVLSPMVTNSSTSEGFVTDDDIAYAVRRAKSAPLQITGAAYITEYGQLFEYGFSVSKDEDIPGLTKLAKAMKSKGAKAVLQLTHAGRFSSHTLARHGYVYGPSPMQLQSPYPHQVKELTHKDILRIIDEYVQATRRAIQAGFDGVEISSAQRLLIQTFFSTFSNQRKDEYGPQTLTNRCRLGLEVFKAVQKVIREEAESDFILGFRATPEETRGSQIGYSIEEFMEFLEKILAIAQVDYLAIASWGHDVFRNTIRSEGVYKGQLVNQVIFEHFGDRVPIMATGGINSASKVFEALQHAHMIGASTPLVVDPEFLQKIKAKCSDQINLRIKVSDLEGLAIPKASFKDIVPLMDYGESEGHHHHHH | soluble |
| MSLNYEMFAKLYDRLMADAPYDRWAKLVEEEIRKAIFSDVNLLDIGCGTGRLLKILSERGYACTGVDQSANMLVIAREALAQKGVQVPLFQQDMTEFYTGETYQVITIFCDSLNYVITEEGVVQTFQRVFDHLDQQGVFMFDVHSPTKLRNHFIGKTFADADEEISYIWQSFAGEAEQSVEHELTFFVRNETGSYDRYEELHIQRGYPIERYVDWLKEAGFSRIDITADFTNEAPTENSERIFFKAYKKEGHHHHHH | soluble |

Reference: the DeepSol protein solubility set
